Holding throughout (details): both partners purified
Test [1] addresses T1, NOT10:GST-NOT11 complex (Hs NOT10-L with GST-NOT11-C) (human, UniProt Q9H9A5 25-707; Q9UKZ1 257-498).
T1 construct: human NOT10 (CNOT10), NOT10-L, residues D25–Q707, from pnYC-vM with a TEV-cleavable MBP tag; human NOT11 (CNOT11), NOT11-C, residues D257–D498; also called NOT10:NOT11 heterodimer; source: E. coli BL21 (DE3) Star, co-expressed, purified (glutathione agarose, TEV cleavage of MBP, HiTrap Heparin, Superdex 200); not shown: MBP, N-terminal, cleaved; GST, N-terminal, kept
Nature of the test: pull-down; purified proteins; GST-NOT11-C alone or the NOT10:GST-NOT11 complex as bait, NOT1-N as prey (Fig. 3g).

Test [2] addresses T2, MBP-Hs NOT10-C (residues T351–Q707) (human, UniProt Q9H9A5 351-707).
T2 construct: human NOT10 (CNOT10), residues T351–Q707; The MBP tag is HRV3C-cleavable; no cleavage step is described; also called C-terminal portion of NOT10; source: E. coli BL21 (DE3) Star, purified (amylose resin, HiTrap Q, Superdex 200)
Nature of the test: pull-down; GST pulldown with recombinant proteins; GST-NOT11 constructs as bait, MBP-tagged NOT10 constructs as prey (Fig. 3b–f; human and Drosophila).

Test [3] concerns the target T3, MBP-Hs NOT10-L (residues D25–Q707) (human, UniProt Q9H9A5 25-707).
T3 construct: human NOT10 (CNOT10), residues D25–Q707; The MBP tag is HRV3C-cleavable (plasmid pnYC-pM); no cleavage step is described; also called isolated NOT10; source: E. coli BL21 (DE3) Star, purified (amylose resin, HiTrap Q, Superdex 200)
Described as above.

The record followed here is paper PMC10352241, “Structure and assembly of the NOT10:11 module of the CCR4-NOT complex” (Communications Biology, 2023).

T1 sequence (Q9H9A5 25-707, chain 1 of 2, other chains not shown): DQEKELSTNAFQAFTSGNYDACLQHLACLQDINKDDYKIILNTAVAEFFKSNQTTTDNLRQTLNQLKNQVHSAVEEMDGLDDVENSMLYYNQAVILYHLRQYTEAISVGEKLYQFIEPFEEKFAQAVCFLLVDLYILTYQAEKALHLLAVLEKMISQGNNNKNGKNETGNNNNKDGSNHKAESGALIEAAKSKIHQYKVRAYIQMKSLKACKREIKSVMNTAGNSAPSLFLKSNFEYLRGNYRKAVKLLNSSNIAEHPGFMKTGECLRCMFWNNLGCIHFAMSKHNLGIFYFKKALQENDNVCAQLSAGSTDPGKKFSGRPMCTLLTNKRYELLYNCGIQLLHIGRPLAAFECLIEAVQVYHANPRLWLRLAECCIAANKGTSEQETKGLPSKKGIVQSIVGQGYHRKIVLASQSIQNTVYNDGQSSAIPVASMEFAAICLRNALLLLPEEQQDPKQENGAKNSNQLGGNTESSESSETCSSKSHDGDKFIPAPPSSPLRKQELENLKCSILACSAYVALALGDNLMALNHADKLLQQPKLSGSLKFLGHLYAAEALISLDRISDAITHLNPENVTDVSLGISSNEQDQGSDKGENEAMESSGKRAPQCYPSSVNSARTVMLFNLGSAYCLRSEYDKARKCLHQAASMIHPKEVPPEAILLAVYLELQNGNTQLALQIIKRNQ
T3 sequence (Q9H9A5 25-707): as the sequence (Q9H9A5 25-707, chain 1 of 2, other chains not shown) above
T2 sequence (Q9H9A5 351-707): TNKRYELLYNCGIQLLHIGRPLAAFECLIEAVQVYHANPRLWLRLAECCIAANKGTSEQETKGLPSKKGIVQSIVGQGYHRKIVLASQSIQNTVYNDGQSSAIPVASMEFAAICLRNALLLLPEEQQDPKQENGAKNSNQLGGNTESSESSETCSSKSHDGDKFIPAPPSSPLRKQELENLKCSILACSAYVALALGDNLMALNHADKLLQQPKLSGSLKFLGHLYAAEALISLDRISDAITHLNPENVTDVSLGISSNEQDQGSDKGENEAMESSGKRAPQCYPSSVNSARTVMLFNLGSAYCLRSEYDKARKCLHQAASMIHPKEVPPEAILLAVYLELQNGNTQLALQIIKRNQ

B1: Hs NOT1-N (residues D4–N682) (domain or fragment, human, UniProt A5YKK6 4-682, looked up)
chain: DSLSLALSQISYLVDNLTKKNYRASQQEIQHIVNRHGPEADRHLLRCLFSHVDFSGDGKSSGKDFHQTQFLIQECALLITKPNFISTLSYAIDNPLHYQKSLKPAPHLFAQLSKVLKLSKVQEVIFGLALLNSSSSDLRGFAAQFIKQKLPDLLRSYIDADVSGNQEGGFQDIAIEVLHLLLSHLLFGQKGAFGVGQEQIDAFLKTLRRDFPQERCPVVLAPLLYPEKRDILMDRILPDSGGVAKTMMESSLADFMQEVGYGFCASIEECRNIIVQFGVREVTAAQVARVLGMMARTHSGLTDGIPLQSISAPGSGIWSDGKDKSDGAQAHTWNVEVLIDVLKELNPSLNFKEVTYELDHPGFQIRDSKGLHNVVYGIQRGLGMEVFPVDLIYRPWKHAEGQLSFIQHSLINPEIFCFADYPCHTVATDILKAPPEDDNREIATWKSLDLIESLLRLAEVGQYEQVKQLFSFPIKHCPDMLVLALLQINTSWHTLRHELISTLMPIFLGNHPNSAIILHYAWHGQGQSPSIRQLIMHAMAEWYMRGEQYDQAKLSRILDVAQDLKALSMLLNGTPFAFVIDLAALASRREYLKLDKWLTDKIREHGEPFIQACMTFLKRRCPSILGGLAPEKDQPKSAQLPPETLATMLACLQACAGSVSQELSETILTMVANCSNVMN
notes: human NOT1 (CNOT1), residues D4–N682; The purification of NOT1-N is not described; source: E. coli BL21 (DE3) Star, purified
In the case of B1, in test [1], the binding result is given as “binds”.

B2: GST-Hs NOT11-C (residues D257–D498) (domain or fragment)
chain: not shown
notes: human NOT11 (CNOT11), residues D257–D498; The GST tag is HRV3C-cleavable (plasmid pnEA-pG); also called GST-NOT11-C; NOT11 construct lacking the NOT11N domain; source: E. coli BL21 (DE3) Star, purified (glutathione agarose, HiTrap Q, Superdex 200); not shown: GST, N-terminal, kept
With B2, the binding result in test [2] and in test [3] was “binds” throughout.
